Legend:
[1] = target: HA-tagged LGR4, wild type (human, UniProt Q9BXB1-1 25-951); experiment: cell-based or functional assay
[2] = target: HA-tagged LGR4 nt-24 variant (-8 AA) (human, UniProt Q9BXB1-1 25-951, p.(His207_Arg214)); experiment: cell-based or functional assay

B1: GFP-tagged RSPO1 (ligand, UniProt Q2MKA7 21-263, looked up)
chain: SRGIKGKRQRRISAEGSQACAKGCELCSEVNGCLKCSPKLFILLERNDIRQVGVCLPSCPPGYFDARNPDMNKCIKCKIEHCEACFSHNFCTKCKEGLYLHKGRCYPACPEGSSAANGTMECSSPAQCEMSEWSPWGPCSKKQQLCGFRRGSEERTRRVLHAPVGDHAACSDTKETRRCTVRRVPCPEGQKRRKGGQGRRENANRNLARKESKEAGAGSRRRKGQQQQQQQGTVGPLTSAGPA
B1 was tested, and the “TOP-Flash luciferase reporter of Wnt/β-catenin signaling in HEK293T cells transfected with LGR4, stimulated by RSPO1 (fold over basal)” value [1] was 6.1 fold and the “TOP-Flash luciferase reporter of Wnt/β-catenin signaling in HEK293T cells transfected with LGR4, stimulated by RSPO1 (fold over basal)” value [2] was 3.3 fold.
